Our source for the percent of Aβ40 contained in the fibrils values is PMC5707514.

This assay has as its target Aβ(M1-42) (UniProt P05067). Kind of assay: fibrils trapped on a 0.2 μm filter, tryptic digest and MALDI-TOF MS; 1:1 mixture of ^15N-Aβ42 and ^14N-Aβ40 monomers, 3 μM total, 5 μM ThT, 37 °C; samples taken at the first and second ThT plateau, fibrils washed with Milli-Q water.

Sequence of Aβ(M1-42) (P05067 671-713): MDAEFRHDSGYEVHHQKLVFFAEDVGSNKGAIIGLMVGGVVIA

As for “Aβ(M1-40) (from UniProt P05067 672-711) (peptide)”, the percent of Aβ40 contained in the fibrils at the first plateau is less than 13%.
